Assay results published in patent publication US20180207228A1, “PEPTIDE COMBINATIONS AND USES THEREOF FOR TREATING GRASS ALLERGY” (ALK-Abelló A/S, priority 2015, published 2018).
Where no end group is shown, it is not given here.

tested on: not listed separately; assay: Peptide solubility by visual inspection; format: physicochemical; details: not given
Method: Water (pH 3-5) • 2. 250 mM D-Mannitol and 25 mM sodium acetate, pH 4.5 • 3. 250 mM D-Mannitol and 25 mM sodium phosphate, pH 7.0 • 4. […] Water (pH 3-5) • 2. 250 mM D-Mannitol and 25 mM sodium acetate, pH 4.5 • 3. 250 mM D-Mannitol and 25 mM sodium phosphate, pH 7.0 • 4. […] A subset of the peptides was selected as candidate peptides for a final peptide mixture. […] During the solubility studies the peptide-containing solutions were inspected visually before and after filtration for turbidity, and presence of particles/aggregates. In addition, presence of turbidity/particles/aggregates was also detected by optical density (OD) or absorbance of filtered material, but might also be detected by size-exclusion chromatography. Furthermore, Sub-visual particles may also be detected by dynamic light scattering (DLS) analysis on filtered and non-filtered peptide containing solutions. Samples were furthermore subjected to centrifugation to allow for the possible visual inspection of pelleted material.

Row | solubility, 1st round of solubility screening | Molecule
1 | soluble | SMGDDHFWAVRGGGGESFGI-OH [peptide 226]
2 | soluble | VRYTTEGGTKTEAEDVIPEG-OH [peptide 212]

same assay, conditions: first solubility screening; TFA salts, 1-7 mg/mL solutions in DMSO

Row | Visual inspection | Molecule
3 | + | AEVELRQHGSEEWEPLTKKG-OH [compound 063]
4 | + | GGASGYKDVDKPPFSGMTGS-OH [compound 006]
5 | ++ | TPDKLTGPFTVRYTTEGGTK-OH [compound 024]
6 | ++ | VVAVDIKEKGKDKWIELKES-OH [compound 021]

tested on: not listed separately; assay: Extended solubility and short term stability study (visual, U-HPLC recovery, DLS, 90LS, UV-VIS, sum of scores); details: not given
Method: For that purpose, the peptides were provided as acetate salts (produced by Innovagen® at a >10 mg scale of manufacturing). To take into account batch-to-batch variations, some peptides were tested from other batches of the manufacturer Innovagen®, as well as from another manufacturer (Almac) and from in-house production. Solubility experiments were performed on peptide in solution in concentrations ranging from 0.5 mg/mL to 3 mg/mL (dry matter)—with the following solvents: • Water • Acetate buffer, pH 4.5 (25 mM sodium acetate containing 250 mM D-Mannitol) • Phosphate buffer, pH 7.0 (25 mM sodium phosphate containing 250 mM D-Mannitol) • Glycine buffer, pH 8.5 (25 mM glycine containing 250 mM D-Mannitol)
The solubility of the peptides was initially investigated by visual inspection and U-HPLC recovery. Visual inspection included assessment of turbidity and presence of particles/aggregates of each peptide solution before and after centrifugation as well as visual inspection of pelleted material. The visual inspection were reported as “clear solution”, “very small precipitation only visible with a magnifier”, “precipitation visible/turbid solution” or “more precipitation/turbid solution”. Filtration of peptide solutions were conducted using syringe based filters containing a polyethersulfone (PES) membrane chemistry and a pore size of 0.2 μm. The amount of the peptide in the supernatant of a filtered sample was determined using U-HPLC with reverse phase chromatography and recovery were determined as described in Example 5.
Peptide solutions were investigated at a time point of 1 hour after production, but were also repeated at later time point (e.g. 24. 48 or 96 hours) to investigate the stability of the peptides.
Peptide solutions were investigated to determine the presence of turbidity/particles/aggregates by use of optical density (OD) and change in UV-VIS absorbance at a wavelength of 320 nm, of the filtrate. […] In addition or as an alternative, the amount of the peptide in the supernatant of a filtered sample was determined using U-HPLC as described above, with the exception that the recovery was determined by dividing the peak area of the filtered sample in relation to the peak area in the original solution prior to filtration. See also Example 5 for further details regarding UV-VIS, and recovery measured by U-HPLC.
The peptides were scored in relation to the outcome of the above mentioned tests: For each peptide in a given buffer and at a given concentration, a sum of test scores was calculated and the sum used to rank the peptides according to solubility: • 1. […] DLS peak 1 number 3 nm gave a score of 1, 3-10 nm gave a score of 2, 10-100 nm gave a score of 3, >100 nm gave a score of 4. • 5. 90LS at 400 nm: Intensity <450 gave a score of 1, <800 gave a score of 2, >800 gave a score of 3. • 6. UV-VIS change in absorbance at 320 nm within 24 hours: 0.01 gave a score of 1, ≤0.05 gave a score of 2, 0.0.2 gave a score of 3 and >0.2 gave a score of 4.

Row | Molecule | solubility in aqueous solutions and short-term stability | solubility by ranking scheme based on a sum of scores
7 | Ac-STGGAYESYKFIPALEAAVK-NH2 [compound 262] | sufficiently soluble | good solubility
8 | Ac-STGGAYESYKFIPALEAAVK-OH [compound 260] | sufficiently soluble | good solubility
9 | STGGAYESYKFIPALEAAVK-NH2 [compound 261] | sufficiently soluble | good solubility

Continued, values first:

Row | solubility in aqueous solutions and short-term stability | solubility by ranking scheme based on a sum of scores | Molecule
10 | sufficiently soluble | – | AGYTPAAPAGAEPAGKATTE-OH [peptide 228]
11 | sufficiently soluble | – | SMGDDHFWAVRGGGGESFGI-OH [peptide 226]
12 | sufficiently soluble | – | VRYTTEGGTKTEAEDVIPEG-OH [peptide 212]

same assay, conditions: pH 4.5

Row | solubility | Molecule
13 | acceptable solubility | AGYTPAAPAGAEPAGKATTE-OH [peptide 228]
14 | acceptable solubility | SMGDDHFWAVRGGGGESFGI-OH [peptide 226]
15 | acceptable solubility | VRYTTEGGTKTEAEDVIPEG-OH [peptide 212]

target: 25 HLA Class II alleles (purified class II MHC molecules); assay: competitive radiolabelled-peptide binding to purified HLA class II (25 alleles, binder if IC50 <300 nM); worldwide phenotypic coverage of the alleles found to bind; details: not given

Row | Molecule | Measured binding coverage 25 alleles [%]
16 | KPEVKYAVFEAALTKAIT (not fully specified) [peptide 142, Lol p 5a (Rye09B1)] | 100
17 | KFIPTLVAAVKQAYAAKQ [peptide 138, Lol p 5b (Bio03A)] | 99
18 | FIPMKSSWGA [peptide 135, Cyn d 1 (Ber02)] | 19
19 | YHFDLSGHAFGAMAKKGDEQ [peptide 205 (Phl p 1, 103)] | 88
20 | KSSWGAIWRIDPKKPLK [peptide 136, Cyn d 1 (Ber02C)] | 76
21 | TDDNEEPIAPYHFDLSGHAF [peptide 204 (Phl p 1, 93)] | 78
22 | PEVKYAVFEAALTKAIT [peptide 140, Lol p 5a (Rye09B)] | 99
23 | GRGSGSSFEIKSTKPEASSG [peptide 202 (Phl p 1, 66)] | 84
24 | GDEQKLRSAGELELQFRRVK [peptide 206 (Phl p 1, 119)] | 70
25 | KYDAYVATLTEALR [peptide 137, Lol p 5b (Bio02A)] | 98
26 | SGKAFGAMAKKGQED [peptide 134, Cyn d 1 (Ber01)] | 47
27 | EIKSTKPEASSGEPVVVHIT [peptide 203 (Phl p 1, 74)] | 71
28 | LKKAVTAMSEAEK [peptide 139, Lol p 5b (Bio04A)] | 62
29 | KKPEVKYAVFEAALTKAIT (not fully specified) [peptide 143, Lol p 5a (Rye09B2)] | 99

Other lines, results leading:

Row | Measured binding coverage 25 alleles [%] | Molecule
30 | 92 | GFKAALAAAAGVPPADKYRT [peptide 230 (Phl p 5, 31)]
31 | 57 | SMGDDHFWAVRGGGGESFGI [peptide 226 (Phl p 4, 195)]
32 | 99 | YIITPTNVSHIQSAVVSGRR [peptide 223 (Phl p 4, 55)]
33 | 91 | TKKGNVWEVKSSKPLVGPFN [peptide 219 (Phl p 3, 47)]
34 | 81 | EWVAMTKGEGGVWTFDSEEP [peptide 214 (Phl p 2, 40)]
35 | 99 | DKYRTFVATFGAASNKAFAE [peptide 231 (Phl p 5, 46)]
36 | 99 | EAKYDAYVATLSEALRIIAG [peptide 233 (Phl p 5, 104)]
37 | 96 | KSSKPLVGPFNFRFMSKGGM [peptide 220 (Phl p 3, 56)]
38 | 39 | HGSEEWEPLTKKGNVWEVKS [peptide 218 (Phl p 3, 38)]
39 | 98 | GFGMLLRKYGIAAENVIDVK [peptide 225 (Phl p 4, 163)]
40 | 94 | VATLSEALRIIAGTLEVHAV [peptide 234 (Phl p 5, 111)]
41 | 99 | PANDKFTVFEAAFNNAIKAS [peptide 237 (Phl p 5, 166)]
42 | 99 | FAVVDLNKMRAVWVDGKART [peptide 224 (Phl p 4, 101)]
43 | 99 | STGGAYESYKFIPALEAAVK [peptide 238 (Phl p 5, 185)]
44 | 85 | LVKYVNGDGDVVAVDIKEKG [peptide 209 (Phl p 1, 163)]
45 | 100 | KEDFLGSLVKEIPPRLLYAK [peptide 222 (Phl p 4, 8)]
46 | 98 | EQKLIEKINAGFKAALAAAA [peptide 229 (Phl p 5, 21)]
47 | 71 | AGELELQFRRVKSKYPEGTK [peptide 207 (Phl p 1, 127)]
48 | 69 | AGYTPAAPAGAEPAGKATTE [peptide 228 (Phl p 5, 1)]
49 | 98 | GSDPKKLVLNIKYTRPGDSL [peptide 217 (Phl p 3, 11)]
50 | 92 | EPLQGPFNFRFLTEKGMKNV [peptide 216 (Phl p 2, 58)]
51 | 93 | TSKLDAAYKLAYKTAEGATP [peptide 232 (Phl p 5, 84)]
52 | 97 | TPFPHRKGVLFNIQYVNYWF [peptide 227 (Phl p 4, 386)]
